Assay results from paper PMC6582323 (Nucleic Acids Research, 2019).

Experiments:
crystal structure = target: the molecule itself; test: crystal structure
[1] = target: T1, Cyanothece PCC7424 McdA(D38A) (Cyanothece sp. PCC 7424, UniProt B7KMS4 1-258, D38A); test: fluorescence polarisation
T1 sequence (looked up): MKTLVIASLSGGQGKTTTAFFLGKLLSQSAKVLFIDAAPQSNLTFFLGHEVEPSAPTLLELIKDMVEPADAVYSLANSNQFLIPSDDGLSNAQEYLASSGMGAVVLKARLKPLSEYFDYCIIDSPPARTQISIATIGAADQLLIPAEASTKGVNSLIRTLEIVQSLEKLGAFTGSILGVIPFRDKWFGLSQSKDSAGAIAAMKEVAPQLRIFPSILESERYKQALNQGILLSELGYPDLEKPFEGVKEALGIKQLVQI

B1: Cyanothece PCC7424 McdB (wild type) (natural protein, Cyanothece sp. PCC 7424, UniProt B7KMS5 1-156, looked up)
chain: MSNNALDRLINKQKPKVPPRNDVVSESVSNDIKTQGQQELNTSLPPSDTKATPEEMPTSHESETSLSQDQKPKLSPDTFETVRNTIRIESEVDESLRQLCHEERITKETWLEAAYLYLCEKPEELAQVIQLAQERLSQRKAIADYKRAKTMQERFL
stoichiometry N (crystal structure): 2 | Kd [1]: 1100 nM
